According to article doi:10.1101/2025.02.04.635266:

Molecular target: IgG1-DNP-E430G (human)
Experiment: single molecule force spectroscopy

koff: 1.8 s⁻¹
Substance: DNP-unspecific IgG1-E430G (tip-linked) (antibody)
